We go through 28 molecules from patent publication US20240150440A1 (LUMEN BIOSCIENCE, published 2024).

Where two headings read alike, the source gives them in different places.

Broadly, the EC50 is the midpoint of the concentration-response curve. A high value points to a less potent agent. For orientation: IC50 means the concentration that gives 50% inhibition. The Kd is a measure of binding affinity in units of concentration. Usually koff stands for the first-order rate constant of dissociation. One may read the kon as the second-order rate constant of association.

For test [1], the target named is SARS-COV-2 Wuhan Reference RBD (SARS-CoV-2, UniProt P0DTC2 319-541). In words: ELISA, RBD coated. Background: ELISA stands for enzyme-linked immunosorbent assay.
The target of test [2] is T1, recombinant SARS-CoV-2 RBD with C-terminal AviTag (SARS-CoV-2, UniProt P0DTC2 319-541). In words: ELISA, competition with coated ACE2-Fc for RBD [Cont. 1].
Test [3] deals with T1, recombinant SARS-CoV-2 RBD with …. Put plainly: ELISA, competition with coated ACE2-Fc for RBD [Cont. 6].
The target is the same in test [4]. Put plainly: BLI, biotinylated RBD on streptavidin biosensors [Cont. 6]. In general terms: BLI is a label-free optical method that tracks binding on a fibre tip over time.
The target is the same in test [5].
The target is the same in test [6]. This is another data set of the same source.
Test [7] has the same target. This is another data set of the same source.

B1: PP1145 MBP-5HVZ-PAPA-R2d-A6-H6 (VHH)
VHH: QVQLVESGGGLVQPGGSLRLSCAASGSGASIGAMHWFRQAPGKGREWVASITSAGNTYYGDSVKGRFTISRDNAKNTVYLQMNSLKPEDTAVYYCNALAGANYESQWEEYNYWGQGTQVTVSS
notes: Form: Dimer
Consider B1, for which the EC50 in test [1] amounted to 1.33 nM. Further, the IC50 in test [2] amounted to 3.8 nM.

B2: PP1133 MBP-4B0F-PAPA-R2d-A6-H6 (VHH)
VHH: B1 VHH
notes: Form: Heptamer
In the case of B2, the IC50 in test [2] is 11 nM.

B3: PP1157 MPB-scTRP-PAPA-R2d-A6-H6 (VHH)
VHH: B1 VHH
notes: Form: Trimer
B3: in test [2], the IC50 was 4.7 nM.

B4: PP884 MBP-R1i-A11-H6 (VHH)
VHH: QVQLVESGGGLVQPGGSLRLSCAASGSILQINAIHWFRQAPGKQREEVAAITSGGSTGYADSVKGRFTISRDNAKNTVYLQMNSLKPEDTAVYYCAATSTRGGLDSDYWGQGTQVTVSS
notes: Form: Monomer
For B4, the IC50 in test [3] was determined as 173 nM. The dissociation constant Kd in test [4] is 23.7 nM.

B5: PP903 MBP-5HVZ-R1i-A11-H6 (VHH)
VHH: B4 VHH
notes: Form: Dimer
Regarding B5, in test [1], the EC50 was determined as 0.27 nM. Also, the IC50 in test [3] was determined as 1.5 nM. Moreover, in test [4], the Kd is 6.98 nM.

B6: MBP-5HVZ-R5D-G1-H6 (VHH, not shown: large carriers; small tags and cut ends)
VHH: QVQLVESGGGLVQPGGSLRLSCAASGSIFGINDVHWFRQAPGKEREFVATITNGLSARYKDSVKGRFTISRDNAKNTVYLQMNSLKPEDTAVYYCAAQVYITTYELYDYWGQGTQVTVSS
Take B6: in test [5], the IC50 came to 12.4 nM.

B7: PP906 MBP-5HVZ-S1b-E7-H6 (VHH)
VHH: QVQLVESGGGLVQPGGSLRLSCAASGGEFSDNGLHWFRQAPGKQREFVATASSDGSTQYRDSVKGRFTISRDNAKNTVYLQMNSLKPEDTAVYYCTALLMSSAGEYDVWGQGTQVTVSS
notes: Form: Dimer
As for B7, the EC50 in test [1] was 2 nM. Also, the IC50 in test [3] is 35.7 nM. The Kd in test [4] came to 15.5 nM.

B8: MBP-5HVZ-R5C-F6-H6 (VHH, not shown: large carriers; small tags and cut ends)
VHH: QVQLVESGGGLVQPGGSLRLSCAASGQTNSILAMHWYRQAPGKQREAVATITSGSNSTYADSVKGRFTISRDNAKNTVYLQMNSLKPEDTAVYYCAARNGKLSPKANQRLYWGQGTQVTVSS
On to B8, for which the IC50 in test [6] was found to be 110 nM.

B9: MBP-R5D-D4-H6 (VHH, not shown: large carriers; small tags and cut ends)
VHH: QVQLVESGGGLVQPGGSLRLSCAASGSDFTINAMHWFRQAPGKQREFVATITSTSSTAYRDSVKGRFTISRDNAKNTVYLQMNSLKPEDTAVYYCAAFAVRDADTAGWTARDYWGQGTQVTVSS
On to B9, for which the Kd in test [5] is 100 nM.

B10: PP1144 MBP-5HVZ-PAPA-R2c-F6-H6 (VHH)
VHH: QVQLVESGGGLVQPGGSLRLSCAASGRILAANIVHWYRQAPGKEREGVAGITTGGSNYYSDSVKGRFTISRDNAKNTVYLQMNSLKPEDTAVYYCNALGLGSASGSYESWGQGTQVTVSS
notes: Form: Dimer
With B10, the IC50 in test [2] came to 3.2 nM.

B11: PP1132 MBP-4B0F-PAPA-R2c-F6-H6 (VHH)
VHH: B10 VHH
notes: Form: Heptamer
As for B11, the IC50 in test [2] is 158 nM.

B12: PP1156 MPB-scTRP-PAPA-R2c-F6-H6 (VHH)
VHH: B10 VHH
notes: Form: Trimer
As for B12, in test [2], the IC50 turned out to be 165 nM.

B13: MBP-5HVZ-R5D-E4-H6 (VHH, not shown: large carriers; small tags and cut ends)
VHH: QVQLVESGGGLVQPGGSLRLSCAASGQISSNNGMHWFRQAPGKRREFVATATTGGTTSYADSVKGRFTISRDNAKNTVYLQMNSLKPEDTAVYYCTALLMSRAGEFDYWGQGTQVTVSS
As to B13, in test [5], the half-maximal inhibitory concentration (IC50) was 13.7 nM and the Kd came out at 9.34 nM.

B14: PP900 MBP-5HVZ-R5a-F2-H6 (VHH)
VHH: QVQLVESGGGLVQPGGSLRLSCAASGSISSIEAMSWFRQAPGKQREGVATMASGGDTSYADSVKGRFTISRDNAKNTVYLQMNSLKPEDTAVYYCAAQTYRPDTWGRYTFWGQGTQVTVSS
notes: Form: Dimer
B14 showed an EC50 in test [1] of 0.47 nM. For the same molecule, the IC50 in test [3] turned out to be 1.7 nM. The Kd in test [4] was found to be 9.13 nM.

B15: MBP-5HVZ-R5D-B2-H6 (VHH, not shown: large carriers; small tags and cut ends)
VHH: QVQLVESGGGLVQPGGSLRLSCAASGSIWSIAFMSWYRQAPGKGREWVAAITTGNDEAYADSVKGRFTISRDNAKNTVYLQMNSLKPEDTAVYYCAANTYERTPDGRTFSYWGQGTQVTVSS
As for B15, in test [6], the Kd worked out at 1.21 nM.

B16: MBP-5HVZ-R5D-A1-H6 (VHH, not shown: large carriers; small tags and cut ends)
VHH: QVQLVESGGGLVQPGGSLRLSCAASGSISSYNAMHWFRQAPGKQREWVAGLTSSGSDGYVDSVKGRFTISRDNAKNTVYLQMNSLKPEDTAVYYCNAFSYHTYSRYDFWGQGTQVTVSS
Regarding B16, in test [6], the half-maximal inhibitory concentration (IC50) is 12.6 nM.

B17: PP1892 R2B-D5_smAKAP-C16S_S3B-C8_H6 (VHH)
chain: QVQLVESGGGLVQPGGSLRLSCAASGYADEINMVHWYRQAPGKGREFVAAIASGGSTFYADSVKGRFTISRDNAKNTVYLQMNSLKPEDTAVYYCAAIPRPSLSYAHDYAYWGQGTQVTVSSTVILEYAHRLSQDILSDALQQWASQVQLVESGGGLVQPGGSLRLSCAASGSIENIERMHWYRQAPGKQRELVAVIDSGGTTRYADSVKGRFTISRDNAKNTVYLQMNSLKPEDTAVYYCAAVWLTNAESTQEYWGQGTQVTVSSHHHHHH
For the molecule B17, in test [7], the Kd was 0.33 nM, the koff came to 0.000411 s⁻¹ and the kon came to 1.23e+06 M⁻¹ s⁻¹.

B18: PP1894 S3B-C8_smAKAP-C16S_R2B-D5_H6 (VHH)
chain: QVQLVESGGGLVQPGGSLRLSCAASGSIENIERMHWYRQAPGKQRELVAVIDSGGTTRYADSVKGRFTISRDNAKNTVYLQMNSLKPEDTAVYYCAAVWLTNAESTQEYWGQGTQVTVSSTVILEYAHRLSQDILSDALQQWASQVQLVESGGGLVQPGGSLRLSCAASGYADEINMVHWYRQAPGKGREFVAAIASGGSTFYADSVKGRFTISRDNAKNTVYLQMNSLKPEDTAVYYCAAIPRPSLSYAHDYAYWGQGTQVTVSSHHHHHH
Regarding B18, in test [7], the Kd worked out at 0.44 nM, the koff stood at 0.000599 s⁻¹ and the kon came out at 1.34e+06 M⁻¹ s⁻¹.

B19: MBP-5HVZ-R5C-F3-H6 (VHH, not shown: large carriers; small tags and cut ends)
VHH: QVQLVESGGGLVQPGGSLRLSCAASGTIPSINYTAWYRQAPGKQRELVASLTSGDNRYYTDSVKGRFTISRDNAKNTVYLQMNSLKPEDTAVYYCNAKTVGSSYRDSYNYWGQGTQVTVSS
On to B19, for which, in test [6], the IC50 turned out to be 11.9 nM and the Kd was 11.3 nM.

B20: MBP-5HVZ-R5C-F5-H6 (VHH, not shown: large carriers; small tags and cut ends)
VHH: QVQLVESGGGLVQPGGSLRLSCAASGSYFKINSLAWFRQAPGKAREVVAAIHSGDGTNYADSVKGRFTISRDNAKNTVYLQMNSLKPEDTAVYYCAADQAWVRAGTYDYWGQGTQVTVSS
As to B20, in test [6], the IC50 was found to be 3.9 nM and the Kd is 3.13 nM.

B21: MBP-5HVZ-R5C-G6-H6 (VHH, not shown: large carriers; small tags and cut ends)
VHH: QVQLVESGGGLVQPGGSLRLSCAASGSIESINAIHWFRQAPGKAREEVAAITENDVDYYADSVKGRFTISRDNAKNTVYLQMNSLKPEDTAVYYCASLSSGYQYVGFRYWGQGTQVTVSS
Turning to B21, the IC50 in test [6] came to 8.7 nM.

B22: PP1895 S3B-C8_smAKAP-C16S_S3B-C8_H6 (VHH)
chain: QVQLVESGGGLVQPGGSLRLSCAASGSIENIERMHWYRQAPGKQRELVAVIDSGGTTRYADSVKGRFTISRDNAKNTVYLQMNSLKPEDTAVYYCAAVWLTNAESTQEYWGQGTQVTVSSTVILEYAHRLSQDILSDALQQWASQVQLVESGGGLVQPGGSLRLSCAASGSIENIERMHWYRQAPGKQRELVAVIDSGGTTRYADSVKGRFTISRDNAKNTVYLQMNSLKPEDTAVYYCAAVWLTNAESTQEYWGQGTQVTVSSHHHHHH
Regarding B22, in test [7], the Kd was found to be 2.06 nM, the koff stood at 0.00761 s⁻¹ and the kon worked out at 3.69e+06 M⁻¹ s⁻¹.

B23: PP1146 MBP-5HVZ-PAPA-R2d-D3-H6 (VHH)
VHH: QVQLVESGGGLVQPGGSLRLSCAASGHIFSINNAAWVRQAPGKSREGVATIHSGGGTYYSDSVKGRFTISRDNAKNTVYLQMNSLKPEDTAVYYCNAEVSTGAGSRGRVSDVYWGQGTQVTVSS
notes: Form: Dimer
Regarding B23, the IC50 in test [2] was 2.1 nM.

B24: PP1134 MBP-4B0F-PAPA-R2d-D3-H6 (VHH)
VHH: B23 VHH
notes: Form: Heptamer
Consider B24, for which the IC50 in test [2] was determined as 27.7 nM.

B25: PP1181 R2d-D3-PP7-H6 (VHH)
VHH: B23 VHH
For B25, in test [2], the IC50 was determined as 282 nM.

B26: PP1158 MPB-scTRP-PAPA-R2d-D3-H6 (VHH)
VHH: B23 VHH
notes: Form: Trimer
Turning to B26, the IC50 in test [2] came out at 43.4 nM.

B27: PP880 MBP-R5a-B5-H6 (VHH)
VHH: QVQLVESGGGLVQPGGSLRLSCAASGDDFIENAISWYRQAPGKGREWVAAVTLGGHSNYADSVKGRFTISRDNAKNTVYLQMNSLKPEDTAVYYCNYPVGIPAVAIDGRRSYGYWGQGTQVTVSS
notes: Form: Monomer
Turning to B27, the IC50 in test [3] amounted to 43.9 nM. Moreover, the Kd in test [4] was 60.8 nM.

B28: PP904 MBP-5HVZ-R5b-C5-H6 (VHH)
VHH: QVQLVESGGGLVQPGGSLRLSCAASGSPFKTQTVHWFRQAPGKGREWVASITSGSGTQYMDSVKGRFTISRDNAKNTVYLQMNSLKPEDTAVYYCAAANDGYGVDWGQGTQVTVSS
notes: Form: Dimer
In test [1], B28 showed an EC50 of 1.06 nM. The IC50 in test [3] came to 2.5 nM. The Kd in test [4] was 11.8 nM.
